In patent US11472877 (Alector, dated 2022):
Numbering of substitutions follows the chain as printed. One block for each binder: values may come before it.

Legend:
human TREM2 on BWZ cells [1] = target: T1, human TREM2 on BWZ cells (human, UniProt Q9NZC2 19-230); test: FACS, BWZ human TREM2
T1 construct: whole, on cells; not tied to the cell line; also called BWZ Human TREM2
T1 sequence (looked up): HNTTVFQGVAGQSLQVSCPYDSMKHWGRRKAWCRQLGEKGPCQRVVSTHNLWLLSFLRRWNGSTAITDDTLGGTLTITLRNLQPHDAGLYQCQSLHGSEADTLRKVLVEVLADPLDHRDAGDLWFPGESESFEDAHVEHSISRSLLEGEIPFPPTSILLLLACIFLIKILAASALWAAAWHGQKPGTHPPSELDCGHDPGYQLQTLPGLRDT

mouse TREM1 on CHO cells = target: T2, mouse TREM1 on CHO cells (mouse, UniProt Q9JKE2 21-230); test: FACS, CHO mouse TREM1
T2 construct: also called CHO-mT1
T2 sequence: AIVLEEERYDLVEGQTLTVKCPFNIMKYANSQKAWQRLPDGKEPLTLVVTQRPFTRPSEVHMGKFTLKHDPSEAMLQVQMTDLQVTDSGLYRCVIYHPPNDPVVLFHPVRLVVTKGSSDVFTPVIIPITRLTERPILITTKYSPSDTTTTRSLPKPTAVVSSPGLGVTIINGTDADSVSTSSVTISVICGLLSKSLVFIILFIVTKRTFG

mouse TREM2 on BWZ cells [2] = target: T3, mouse TREM2 on BWZ cells (mouse, UniProt Q99NH8 19-227); test: FACS, BWZ mouse TREM2
T3 construct: whole, on cells; also called BWZ Mouse TREM2
T3 sequence (looked up): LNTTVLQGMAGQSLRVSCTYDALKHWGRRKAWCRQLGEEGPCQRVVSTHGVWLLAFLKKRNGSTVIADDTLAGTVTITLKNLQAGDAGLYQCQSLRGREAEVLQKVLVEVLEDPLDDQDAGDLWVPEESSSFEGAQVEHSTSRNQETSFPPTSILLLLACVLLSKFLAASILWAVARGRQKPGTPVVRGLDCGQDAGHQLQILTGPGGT

human TREM2 on BWZ cells [3] = target: T1, human TREM2 on BWZ cells; test: FACS, BWZ cells
mouse TREM2 on BWZ cells [4] = target: T3, mouse TREM2 on BWZ cells; test: FACS, BWZ cells

B2: T1-20 (antibody, IgG1, V domains shown)
VH: EVQLVESGGGLVQPGGSLRLSCAASGFTFSSYWMSWVRQAPGKGLEWVANIKQDGSEKYYVDSVKGRFTISRDNAKNSLYLQMNSLRAEDTAVYYCARDAPQLGLDVWGQGTMVTVSS
VL: not shown
notes: huIgG1; also called TI-20; ADI-19087
- FOB Fold Over Background (human TREM2 on BWZ cells [1]): 0.6 fold
- FOB Fold Over Background (mouse TREM1 on CHO cells): 0.7 fold
- FOB Fold Over Background (mouse TREM2 on BWZ cells [2]): 1 fold
- binding result (human TREM2 on BWZ cells [3]): no binding
- binding result (mouse TREM2 on BWZ cells [4]): no binding

B3: T1-28 (antibody, IgG1, V domains shown)
VH: EVQLVESGGGLVKPGGSLRLSCAASGFTFSSYSMNWVRQAPGKGLEWVSSISSSSNYIYYADSVKGRFTISRDNAKNSLYLQMNSLRAEDTAVYYCARGPSQYYYDSSAIEAFDIWGQGTMVTVSS
VL: EIVLTQSPATLSVSPGERATLSCRASQSVGSNLAWYQQKPGQAPRLLIYGASTRATGIPARFSGSGSGTEFTLTISSLQSEDFAVYYCQQYLYFPLTFGGGTKVEIK
notes: huIgG1; also called TI-28
- FOB Fold Over Background (human TREM2 on BWZ cells [1]): 0.6 fold
- FOB Fold Over Background (mouse TREM1 on CHO cells): 408 fold
- FOB Fold Over Background (mouse TREM2 on BWZ cells [2]): 1.1 fold
- binding result (human TREM2 on BWZ cells [3]): no binding
- binding result (mouse TREM2 on BWZ cells [4]): no binding

B4: T1-21 (antibody, IgG1, V domains shown)
VH: EVQLVESGGGLVQPGGSLRLSCAASGFTFSSYSMNWVRQAPGKGLEWVSYISSSSSTIYYADSVKGRFTISRDNAKNSLYLQMNSLRAEDTAVYYCARGGPLGYGDYKGMDVWGQGTTVTVSS
VL: DIQLTQSPSSLSASVGDRVTITCRASQSISSFLNWYQQKPGKAPKLLIYAASSLQSGVPSRFSGSGSGTDFTLTISSLQPEDFATYYCQQSYSDLTFGGGTKVEIK
notes: huIgG1; also called TI-21; ADI-19088
- FOB Fold Over Background (human TREM2 on BWZ cells [1]): 0.5 fold
- FOB Fold Over Background (mouse TREM1 on CHO cells): 0.5 fold
- FOB Fold Over Background (mouse TREM2 on BWZ cells [2]): 0.9 fold
- binding result (human TREM2 on BWZ cells [3]): no binding
- binding result (mouse TREM2 on BWZ cells [4]): no binding

B6: T1-13 (antibody, IgG1, V domains shown)
VH: EVQLVESGGGLVKPGGSLRLSCAASGFTFSSYSMNWVRQAPGKGLEWVSSISSSSNYIYYADSVKGRFTISRDNAKNSLYLQMNSLRAEDTAVYYCARGRYRRTGSLDVWGQGTMVTVSS
VL: EIVLTQSPGTLSLSPGERATLSCRASQSVSSSFLAWYQQKPGQAPRLLIYGASSRATGIPDRFSGSGSGTDFTLTISRLEPEDFAVYYCQQLDSHPPTFGGGTKVEIK
notes: huIgG1; also called TI-13; ADI-19080
- FOB Fold Over Background (human TREM2 on BWZ cells [1]): 0.7 fold
- FOB Fold Over Background (mouse TREM1 on CHO cells): 0.5 fold
- FOB Fold Over Background (mouse TREM2 on BWZ cells [2]): 1.2 fold
- binding result (human TREM2 on BWZ cells [3]): no binding
- binding result (mouse TREM2 on BWZ cells [4]): no binding

B7: T1-26 (antibody, IgG1, V domains shown)
VH: QVQLVQSGAEVKKPGASVKVSCKASGYTFTSYYIHWVRQAPGQGLEWMGIINPSGGSTSYAQKFQGRVTMTRDTSTSTVYMELSSLRSEDTAVYYCARDSAQETYYYGMDVWGQGTTVTVSS
VL: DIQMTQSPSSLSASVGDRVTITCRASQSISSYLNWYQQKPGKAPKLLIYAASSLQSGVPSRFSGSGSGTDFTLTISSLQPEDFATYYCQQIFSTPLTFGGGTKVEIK
notes: huIgG1; also called TI-26
- FOB Fold Over Background (human TREM2 on BWZ cells [1]): 0.8 fold
- FOB Fold Over Background (mouse TREM1 on CHO cells): 417 fold
- FOB Fold Over Background (mouse TREM2 on BWZ cells [2]): 1.2 fold
- binding result (human TREM2 on BWZ cells [3]): no binding
- binding result (mouse TREM2 on BWZ cells [4]): no binding

Second part, the binder after the results:

- FOB Fold Over Background (human TREM2 on BWZ cells [1]): 0.5 fold
- FOB Fold Over Background (mouse TREM1 on CHO cells): 447 fold
- FOB Fold Over Background (mouse TREM2 on BWZ cells [2]): 0.9 fold
- binding result (human TREM2 on BWZ cells [3]): no binding
- binding result (mouse TREM2 on BWZ cells [4]): no binding
B1: T1-31 (antibody, IgG1, V domains shown)
VH: QLQLQESGPGLVKPSETLSLTCTVSGGSISSSSYYWGWIRQPPGKGLEWIGSIYYSGSTYYNPSLKSRVTISVDTSKNQFSLKLSSVTAADTAVYYCARDRRMWDPYGMDVWGQGTTVTVSS
VL: DIQMTQSPSSLSASVGDRVTITCQASQDISNYLNWYQQKPGKAPKLLIYDASNLETGVPSRFSGSGSGTDFTFTISSLQPEDIATYYCQQYDDFPPITFGGGTKVEIK
notes: huIgG1; also called TI-31

- FOB Fold Over Background (human TREM2 on BWZ cells [1]): 0.5 fold
- FOB Fold Over Background (mouse TREM1 on CHO cells): 453 fold
- FOB Fold Over Background (mouse TREM2 on BWZ cells [2]): 0.8 fold
- binding result (human TREM2 on BWZ cells [3]): no binding
- binding result (mouse TREM2 on BWZ cells [4]): no binding
B5: T1-30 (antibody, IgG1, V domains shown)
VH: QLQLQESGPGLVKPSETLSLTCTVSGGSISSSSYYWGWIRQPPGKGLEWIGSIYYSGSTYYNPSLKSRVTISVDTSKNQFSLKLSSVTAADTAVYYCARGRKAAAGIDEAEYFQHWGQGTLVTVSS
VL: B4 VL with L4M, L11V, S28G, F32W, N34A, S91V, Y92I, D94F, L95P
notes: huIgG1; also called TI-30

- binding result (human TREM2 on BWZ cells [3]): no binding
- binding result (mouse TREM2 on BWZ cells [4]): no binding
B8: T1-34 (antibody, IgG1, V domains shown)
VH: EVQLVESGGGLVKPGGSLRLSCAASGFTFSSYSMNWVRQAPGKGLEWVSSISSSSNYIYYADSVKGRFTISRDNAKNSLYLQMNSLKAEDTAVYYCARRPDDRRGLFQHWGQGTLVTVSS
VL: DIQMTQSPSTLSASVGDRVTITCRASQSINSWLAWYQQKPGKAPKLLISDASSLESGVPSRFSGSGSGTEFTLTISSLQPDDFATYYCQQYGPYPYTFGGGTKVEIK
notes: huIgG1; also called TI-34; ADI-19108
